Experimental data reported in US20040072293A1, “Novel physiologically active peptide and use thereof” (priority 2001, published 2004).

Tests used:
[1] = biological target: T1, the protein of the invention (ZAQ) (Homo sapiens, UniProt Q8TCW9); assay: activation of the protein of the invention and intracellular Ca ion concentration in cells expressing it; format: cell-based
T1 construct: expressed in transfected cells

[2] = test system: proximal colon; conditions: cited from earlier work
[3] = test system: ileum or distal colon; conditions: cited from earlier work

T1 sequence (Q8TCW9 whole entry): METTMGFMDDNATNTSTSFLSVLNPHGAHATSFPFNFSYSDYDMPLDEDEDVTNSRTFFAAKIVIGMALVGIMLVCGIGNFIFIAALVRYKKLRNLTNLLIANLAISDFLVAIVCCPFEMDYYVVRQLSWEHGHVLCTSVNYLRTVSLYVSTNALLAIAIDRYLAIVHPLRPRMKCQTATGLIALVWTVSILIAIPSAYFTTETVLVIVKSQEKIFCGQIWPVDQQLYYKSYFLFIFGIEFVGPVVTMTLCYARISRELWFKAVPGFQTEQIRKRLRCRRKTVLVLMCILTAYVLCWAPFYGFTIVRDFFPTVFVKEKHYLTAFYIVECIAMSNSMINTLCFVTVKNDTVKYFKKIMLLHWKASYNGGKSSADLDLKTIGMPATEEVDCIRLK

B1: MIT1 (protein, listed as Dendroaspip polylepis)
chain: AVITGACERDLQCGKGTCCAVSLWIKSVRVCTPVGTSGEDCHPASHKIPFSGQRMHHTCPCAPNLACVQTSPKKFKCLSK
[1]
  activation of the protein of the invention: activated the protein of the invention
[1]; cells in which the protein of the invention was expressed
  intracellular Ca ion concentration: increased intracellular Ca ion concentration
[2]
  relaxation in the proximal colon: relaxation in the proximal colon
[3]
  contraction in the ileum or distal colon: induced contraction in the ileum or distal colon
[3]; ileum, distal colon (contraction) and proximal colon (relaxation), comparator 40 mM potassium chloride
  degree of contraction/relaxation compared with potassium chloride: as potent as comparable to 40 mM potassium chloride
